Test: soluble on expression in E. coli; label from the status in PepcDB or PDB records
With “MSLEFLRDFGKTALIHQGNEISYAELLENIASFANLMDITPNERVGIVMENRPEWVYAFYGTWKKGGIVVPIDFMSTPQEIRYILEDAEPSIIFCSDETYPRVREASEDLKVEIVNVDNLVLPTPWEGIVRRDEDDVAVLPYTSGTTGNPKGVMLTFKNLMSNIRGVSEVGIAGKEDKTLAILPFHHMYPLMTTMLLPLYLGATVVFLDKLTPEDIIEKLQKYQITVLIGVPRLYQLFHRRIMEEINKNVLAKNLFKLMKKVKNQKIRKTVFKKVHDAFGGRIKYMVSGGAKLPLDIAQDLTTLGFTVIEGYGLTETSPIVSFNPPNRIKLGSVGVPIKGVEVMTTSEGEIIVRGDNVMKGYWKKPEETQKVIINGWFYTGDLGEIDEEGYIYITGRKKEIIVLGSGKNVFPEEIESKILAKAPYIKEVGVFEKDGKLLALIYPDFEKVKELGITNLEETIKWEVIDKVNRELPEWKRVVGFKIVKTELPKTRLGKLRRFLLPQIYEKAEEIKEEKTEDYSVFETEEGRIIKEFLEKISQKEVKPGDHLEIDLGLDSLAKVELLGFIETNFGVSLSEEELSKNLVVKDLIELVRSKKKSVDTKEVSWKDILTKAKPYELYHYPLIFELGRKLLKLYFKLYHRIDVRGLENLPKPPFIIAPNHQSYLDAFAIAAVLPKEIAHETYFLGDETYFRNPITSTFGKLAHVITVNVNKGLKESLQKTAYALMSGKVVVIFPEGARTRTEELMEFKKGVAILARELGVPIVPVAIEGAYEAWSVYDKFPKPKKIKIMFGKPVDPDEKSYEEITKELYEWIKSMLEFLKKESEGHHHHHH” the “soluble on expression in E. coli” value was “soluble”. For “MSLEKPKYKRIVLKLSGEALAGEQGNGINPTVIQSIAKQVKEIAELEVEVAVVVGGGNLWRGKTGSDLGMDRATADYMGMLATVMNSLALQDSLETLGIQSRVQTSIEMRQVAEPYIRRKAIRHLEKKRVVIFAAGTGNPYFSTDTTAALRAAEIEADVILMAKNNVDGVYNADPRKDESAVKYESLSYLDVLKDGLEVMDSTASSLCMDNDIPLIVFSIMEEGNIKRAVIGESIGTIVRGKEGHHHHHH”, the “soluble on expression in E. coli” value was “soluble”. In the case of “MSLEKVLVIVGPTAVGKTALSIALAKKFNGEIISGDSMQVYRSLDIGTAKVTETEKEGIPHYLIDCREVSETYSAADFQKEGRQKIKEITEKGKLPIIVGGTGLYIQSLLYDFQLGSREIDDSPEIRETYNLFAEEKGNQALWLLLQQKDPLAANSIHFNNRKKVIRALEVFDKTGYSILTPKEKPARLYDYYLLGLETDRALLYERINQRVDQMMTEGLLEEAKQMFQQPHAQAAQGIGYKEFFPYFSGEQSLEMAVETVKQQSRRYAKRQLTWFRNRMAAHWWNLVQQPTDLPKLEKEVAEWLQQKESEEGHHHHHH”, the “soluble on expression in E. coli” value is reported as “soluble”. For “MSLEKVQLPSVPAFKGHSFLAFPTLRAYHTLRLAMEFRALETEGLLLYNGNARGKDFLALALLDGHVQFRFDTGSGPAVLTSLVPVEPGRWHRLELSRHWRQGTLSVDGEAPVVGESPSGTDGLNLDTKLYVGGLPEEQVATVLDRTSVGIGLKGCIRMLDINNQQLELSDWQRAVVQSSGVGEEGHHHHHH”, the “soluble on expression in E. coli” value was “soluble”. With “MSLELFRSKTCALCKGRKLMCGRPRCPILEKFRVAKSVESKINKKEIFGASPPSVFVGEFGYPNVRIGPMVPPVEGDTSFMDDPSRWENVTILEIMEYRSMLVMGETNAHVQVKKNLNFLTHIQELAMANKPVDSEILLKKTPKLDLITGGFTPPVGPRETMLKFKLAENPKIPKKTDYIVNDELKANEGMISLYDSGFDEYYIIKLLSTGLLGVNKKLVPTKWSITAAQDLLGKYVKKSILEYSQINEYEVYFKNFLGNRYAVLLIPDIYAYEMLEVWLKGSLFSGESYNVLSDFEDTTGMKGYADEITGAFYACRLSILEYLKKRKKQAKILVFREITPEYYAPVGVWQIRTGVKLAMENRVGRFNNLKSALESIKKHLEVPIDDYKTKSKILKSNDRQITLDKFFEGHHHHHH” the “soluble on expression in E. coli” value was “not soluble”. For “MSLELPSFIFQAQENLVERPWGGEWIALLKGFRQSGIGESWEFSAHTSRPSTVLVKGQQLSMIELFSKHRDELLGRAAEKFSKFPILVRLIDAASPTQVHVHPSDKAAESLGEAEGGVESAWLVFNKGKAYAGFKEDVKIEELEEKLKEEDFDFKTLLNTFETTPYDTFVIRPGIPHAGEGLRVLEVSSNSTLAYFFNENDWEKVKKVLNTKKVEEFEVKGKKGMAETENFGLEVVDVTGTAEIKTGGVMNILYAAEGYFILRGKETADLHRGYSCLVPASTDSFTVESERGKIVRIYLKVEGGSHHHHHH”, the “soluble on expression in E. coli” value was “soluble”. In the case of “MSLENCKKVNYERVEKERESGSSISIRNFKREAYDSSGQLQWELRANESFVYVNENKTTFYDIDFDQYEAGKFKSKLLAEKGEINHKTRLMLLEGKILLKTDDHKILTAKTMEYNMDTKKLVSDSEVSVSADGTTIRGIGLRADKDLNKFTILKPTAITQGGTNPLKAAGSPEGHHHHHH”, the “soluble on expression in E. coli” value is reported as “soluble”. For “MSLENIRNIAVIAHVDHGKTTMVDELLKQSGTFSEREQISERVMDSNDIEKERGITILSKNTAINYKGTKINIIDTPGHADFGGEVERVLKMIDGVLLLVDAQEGVMPQTKFVVKKALSLGLKPIVVINKIDKPAADPERVINEIFDLFVALDANDEQLDFAIVYAAAKNGYAKLDLNDESDNMEPLFKTILERVPAPSGSDENPLQLQVFTLGYDNFVGKIGIARIFNGVVKKNQSVMLAKADGTKVNGRISKLIGFMGLEKMDIEEAGSGDIVAIAGFEALDVGDSVVDPNNPMPLDPLHIEEPTLSIVFSVNDGPLAGTEGKHVTSNKIAERLEAEMKTNIAMKYESTGEGKFKVSGRGELQITILAENMRREGFEFCMGRPEVIVKVEDGVKTEPFEHLVIDVPEEFSGAVIEKLGKRKAEMKTMAPTGDGQTRLEFEIPARGLIGFRSQFLTDTKGEGVMNHSFLEFRPFSGAVEKRNNGALISMENGVALGYSLFNLQERGVLFIEPQTKVYTGMIIGEHSRPNDLDVNPIKGKNLTNVRASGSDDAIKLVPPRKLSLERALEWIEEDELVEVTPVNVRVRKRYLDPTQRKRMEKAKEGHHHHHH”, the “soluble on expression in E. coli” value was “soluble”. With “MSLENKKMEFWFVVGSQHLYGEEALKEVRKNSETIVDELNKSANLPYKIIFKDLATSADKIKEIMKEVNYRDEVAGVITWMHTFSPAKMWIAGTKILQKPLLHFATQYNENIPWKTIDMDYMNLHQSAHGDREYGFINARLKKHNKVVVGYWKDKEVQKQVSDWMKVAAGYIASESIKVARFGDNMRNVAVTEGDKVEAQIQFGWTVDYFGIGDLVAEMDKVSQDEINKTYEEFKDLYILDPGENDPAFYEKQVKEQIKIEIGLRRFLEKGNYNAFTTNFEDLYGMKQLPGLAVQRLNAEGYGFAGEGDWKTAALDRLLKVMTNNTATGFMEDYTYELSRGNEKALGAHMLEVDPTFASDKPKVIVKPLGIGDKEDPARLIFNGSTGKGVAVSMLDLGTHYRLIINGLTAVKPDEDMPNLPVAKMVWKPEPNFIEGVKSWIYAGGGHHTVVSLELTVEQVYDWSRMVGLEAVIIDKDTKLRDIIEKTTEGHHHHHH” the “soluble on expression in E. coli” value was “soluble”. For “MSLENNKAKMNEKEEIIFNSIRKNPYISQQELADILDLSRPTVANLISGLIKKGRILGKAYILNEAKQIVCIGGANVDRKFYIKDKAQLATSNPVRSTQSAGGVARNVGENLGRLGKEVILLTACGTDSDWEAVKNASNTYMNLDYVTAFPSIATGSYTAVLENNGDLLVALADMDAYDHLTPDVLAKNEGLLSQASAIIADLNCPKETLEYLGSFAEINSIPLVLVPVSSPKMSHLPERLDHVTWLICNRDESETHLEMTIENDEDWRLAAQKWLDLGVKNVIVTNGSKGAVAANNAEGIIFEPAIVIENIVDVTGAGDAFCSAVIYAWLEGKSLQEILKAGSVNAARTLESEYTVRQNLSTSQLQKDLEEFKEGHHHHHH”, the “soluble on expression in E. coli” value was “soluble”. In the case of “MSLENRFDLRCYVVTGAGSVDEVVHTASAAARGGAGVVQVRSKPISPEAMRELASKVALEVARCSPTTRVLIDDHLHVASSLMREGLPIHGVHLGQDDMSVLEARELLGPEAIIGLTTGTLELVAAANELSDVLDYIGAGPFRKTPTKDSGRPPIGLAGYPPLVELSKVPIVAIGDVTPADVRALSATGVAGVAMVRAFSESDDPQQVAENVVANFELGRLSEGHHHHHH”, the “soluble on expression in E. coli” value is reported as “soluble”. For “MSLEPDNQTPLKILVTGASGFVGLRVLTQAQNIGYALVAQSRSQQPYSFEQVLLDITPNTDWERALVGVDCVVHCAARVHQMQETEADALKAYRDVNTQGTLNLAKQAVSAGVKRFIFLSSIKVNGEQTKAGSAFQHDDQHIPSDPYGLSKYEAEQQLLELAAETGLEVVIIRPPLVYGEGVKANFLSMMNWVKKQIPLPLGAVGNMRSLVYLDNLVDLILVCCQHPKAAGEIFLVSDNHDVSLTTLLRTIAQAMQIRPRLLPIPQTGLQWLLRLLGKPELGQRLCGNLQLDIAHTQKTLHWSPPVSFEQGIARTVNFYLSQSSKEGHHHHHH”, the “soluble on expression in E. coli” value was “soluble”. In the case of “MSLEQLATTSQQEILAERPQLTTKIAVDLDVKGIKEKDEDAWQNVQIYLAQINNEYADGSERYQYLVQTTVDKALRAKGYYNSQYQFVKTVSAEQKPLLTLNVQLDNQKVTIDEVDIQLQGDANTDEDFIELKKTAPNQGDSLAHNAYDDFKSHIEGLAFKKGYFDGQWLYHRLEVYPQNHSVDWRLAYDSGKRYRYGEINFIDNQIKEEYLTNILKIAPQQYYYASDLSLMTADYLSSNWFSSVLVEPKLNEKAKLVDLKIFFQPKKKNKVEIGAGFATQLGARLQLNWKKPWLNERGHSIDSRTYLSLPEQTLELGYNVPLRQNPLHYYYQFSGSLEHQNQQDTKSIAGSFGLQRFWTHETGWSFSAGIKSRYDSFTQANDKHKTLLVYPTAALNRTQTDGNRFPLWGDSQRITVNWGAKIFGSDVSFYSWKASSTWVRTYLDRHRLFLRGEVGQVHTKDFHQIPPTLRYFAGGDMSIRGFAYKSISPKEPKSGKLIGGSHLVTTTAEYQYRIYPDWWAAIFYDTGLVSDKFDHRALHSGAGVGVRWISPIGAIKFDIATPVKSPNNKRGVQFYIGLGSEEGHHHHHH”, the “soluble on expression in E. coli” value is reported as “not soluble”. For “MSLERPLCISYIRFSKATQAEGSSLERQLQLSRTYAEEHGLVLDDKHSYQDLGKSAFTSEHVKEGEFGVFLEFVKQGRVPKGSVLLVESLDRLSRESVLTAFKQFQEILDAGIKIVTLSDKMEYTKEGFEANIGNIFISLGIMARANEESLRKSERICAAWRLKRKNLHNIKLTANCPGWLELTPDKKDFILKEDRVEIVKQIFELSLSGLGVKAISTILNKQKIEPFRSKIGWYQTTVRKILSNSAVIGEFQPHVFGSKHSKPVPDGELIKDYFPPIIDTDTFYAVQAKLKNGAHREGHHHHHH”, the “soluble on expression in E. coli” value was “soluble”. For “MSLEVISLSEKKGFNFNIIKNDPLDGHKGTNIGSISLDNIAPVFIDVANKEAFIDIGGMHARAKVEKGVKWITDKAAVEGDEAKEYWLCWVTTERNEQGPYYAGLTACYLLVNKAIRRGYKSMPEHVNMMDKSMKHHIIIDQIGDENKAILKDFLMNHDEGMWKHSSDALHQAFNEGHHHHHH”, the “soluble on expression in E. coli” value was “soluble”. With “MSLEWHFSLKEPHVLLFLPFEKYALPYPDPSQSWLSFGLTEIPVPEWTKNLEIITPWRPDFLKFANAQFRCSPEINQTCTHDGALLQLSKYRGFNQNCFLDLLERVKPGGWIIIGGNKTSGADSMMKWVKKIVPITNKFSKNHGLVFWIQVPQQIEKQNTAQLRSPPLTFENKFQTTSGMFSHGRIDPGSAVLASHMCKTISGKTADFGAGWGFLSHAALERSEKLTALDLYEADYNALKAAKQHLKHITTSLPIHFYWHDLVHEPITNLYDTIISNPPFHTQQTTDVSLGQHFIINAAKYLKPGGNLLLVANRHLPYETLLKRLFRTVLIYEKAHGFKVIEAYREGHHHHHH” the “soluble on expression in E. coli” value was “soluble”. In the case of “MSLEYNDVVEAVISALKKAHTELPEDVVTAIKKAYDSEENDIAKRNLEAILKNIEAAKKLGVPMCQDTGIPVFFVEVGRELCLDFDLKEAIVEGVRKATAEIPLRPNAVHPITRENSGDNTGLGIPQINVELVKGDELRMVVMPKGAGSENVSALKMMLPTQVDKIKDFVVETVKNAGGKPCPPIFVGVGVGSTFDGAAKLAKKALLRNVLEMNDFELELLEAVNELGIGAMGLGGKYTALAVLVEFGHCHTASLPVAVNIQCWANRRAEVVLREGGSHHHHHH”, the “soluble on expression in E. coli” value is reported as “soluble”.

Source: the DeepSol protein solubility set
